Our source for the IC50 (read off the curve) and EC50 (read off the curve) values is patent US20240166729A1.

Read-outs that look alike come from different tables or passages of the source.

Assay [1] deals with mAb-EspB-B7.
Assay [2] has as its target Peptide #50 (enteropathogenic E. coli (EPEC)).
In assay [3] the target is Peptide #49 (enteropathogenic E. coli (EPEC)).
Assay [4] has as its target Peptide #49 + 50 (enteropathogenic E. coli (EPEC)).
In assay [5] the target is mAb-EspB-B7. This is another data set of the same source.

Broadly, the EC50 (read off the curve) is the concentration at which the effect is half-maximal.

CTSAQKASQVAEEAADAAQEC (modifications not checked) [Peptide #49 + 50] showed an IC50 (read off the curve) in the assay with mAb-EspB-B7 [1] of 2 µg/mL.

B1: mAb-EspB-B7 (antibody, V domains shown)
VH: EVQLLESGGGLVQPGGSLRLSCAASGFTFSHYAMNWVRQAPGKGLEWVSAINSNGDSTYYPDTVKDRFTISRDNSKNTLYLQMNSLRAEDTAVYYCARDRRAGYFDYWGQGTLVTVSS
VL: DIVLTQPPSASGTPGQRVTISCSGSRDNIGKNYVSWYQQLPGTAPKLLIYRNNQRPSGVPDRFSGSKSGTSASLAISGLRSEDEADYYCSAWDTSLNAYVFGPGTQLTVL
On to B1, for which the EC50 (read off the curve) turned out to be 0.4 µg/mL in assay [2], 0.5 µg/mL in assay [3] and 0.3 µg/mL in assay [4].
Take CTSAQKASQVAEEAADC (modifications not checked) [Peptide #49]: in the assay with mAb-EspB-B7 [5], the IC50 (read off the curve) came to 0.8 µg/mL.
